The target in the assay is OsPUB2 recombinant protein, bacterially expressed ((His)6-OsPUB2 and MBP-OsPUB2) (rice (Oryza sativa L.)).

As to “OsPUB3 recombinant protein, bacterially expressed ((His)6-OsPUB3 and MBP-OsPUB3) (natural protein)”, the apparent half-life of MBP-OsPUB2 in mock-treated rice cell-free extract when mixed with (His)6-OsPUB3 (150 min without it); cell-free degradation assay, 0-6 h at 30°C was 4.17 h and the apparent half-life of MBP-OsPUB3 in mock-treated rice cell-free extract when mixed with (His)6-OsPUB2 (140 min without it); cell-free degradation assay, 0-6 h at 30°C is 5.83 h.

The record behind these values is paper PMC5247461.
